Experimental data reported in the DeepSol protein solubility set.

Experiment: soluble on expression in E. coli; label from the status in PepcDB or PDB records

Soluble on expression in E. coli, not soluble:
MGSDKIHHHHHHMNDYIIEMLNITKEFPGIIANDNITLRLKKGEIHALLGENGAGKSTLMSVLFGLYQPEKGEIRKNGNTVKINNPNDANALGIGMVHQHFKLVEIFTVLENIILGVEPHALGFLQKKKAREKVVELSKQYGLEVNPDALIEKISVGMQQRVEILKMLYRDNEILIFDEPTAVLTPQEIDELMEIMRRFAKEGKSILFITHKLNEIMAVADRCTVLRKGQYVGTVDIKDTTKEELSRMMVGRDVSFRVQKETMTPGRVVLSVRNVSVPSKTSKKNAVSNVSFDVRAGEIVCLAGIDGNGQTEFVSALTGLERHTSGTITLCDQDISKASVRTRSQAGMSHIPEDRHKYGLVLDYTLEDNLVIQRYWQPQFQRFGFIRRKAVRSYAEGLIKQYDVRSGQGPLTIARSMSGGNQQKTIIGREIDKDHELLVAVQPTRGLDVGAIEYIHKQLVARRNAGKAVLLVSLELDEVMNVSDRILVMYEGEIVGELDPKTTTVQELGLYMSGAKRNLKEGSHAG, MGSDKIHHHHHHMNEADVTKFVNNARKTLTDAQLLCSSANLRIVDIKKKLSSWQLSISKLNFLIVGLRQQGKFLYTILKEGIGTKLIQKQWNQAVLVVLVDEMKYWQYEITSKVQRLDGIVNELSISEKDDTDPSKLGDYISRDNVNLLNDKLKEVPVIERQIENIKLQYENMVRKVNKELIDTKLTDVTQKFQSKFGIDNLMETNVAEQFSRELTDLEKDLAEIMNSLTQHFDKTLLLQDKKIDNDEREELFKVVQGDDKELYNIFKTLHEVIDDVDKTILNLGQFLQAKIKEKTELHSEVSEIINDFNRNLEYLLIFKDISNLIDSFKNSCTQDIQTTKELCEFYDNFEESYGNLVLEAKRRKDVANRMKTILKDCEKQLQNLDAQDQEERQNFIAENGTYLPETIWPGKIDDFSSLYTLNYNVKNP, MGSDKIHHHHHHMNEIVKLISKHNDVRTGAINLIVSENRMSPAALAALSSDLASRYAAPFYAGTDISQEIVAITEQKAKKLFNAEYVNISPISGSASLMAVVFALTSPGDKVGRVPPFFPGGGYPFNYEVFDRVSLPLPFDDEEWQLDLEATLELLEREKPKLVILGASIFTVPMPVREVADLVHSYGGIVAYDGSHSLGLIVGKQYQDPLNEGADILFGSTHKTFPGPQGGIIVTNSKELNDRIDIVSNFTPLNGPTMICNPHLARIASLGIVIDEVPWERYAEQVVKNSRAFANTLQAKGYEMRGQSTKKFSELSYCHQVLPKLDRQMGQGYRDKLKQHNIHVDGFMRVGTAEITRLGYVEADCTRISEIMAEIVSSNQDVIPSLRHEVVEMNANHQHIVM, MGSDKIHHHHHHMNELTNKLQQVMVPKAALIAYEYRENRYGNGMHYLELHPINDRGRMEAAMPVTYEFMDSLVESYTDDRRNVPHGKIPANMLWCDTRKGHERYIWYNPPGKRRMFFAGSLNIPDGTFHVPGVIYKVSGDRLDIFSYKGEKPAENSPLFLAPFFNVTGSSVCLGNAALTPPEDMTFSKLLEYWEKRFWLSEFSHLGGSRNPTGSNLVSVTEKARANPFDENELKPMSKQLKDLLA, MGSDKIHHHHHHMNFAMTPEEAKTNEAYCRALIELLYQLADDDYIVAYRGSEWLGLAPHIEEDVAFSSITQNTMGHAVMFYELLEQLGEGDADTLAHERDPALRRNSVYLEKKNGSGTYLDEPHYDWALTVIRHFFYETFKKIRLEALTQSSYVPLAKAAQRVLMEQPYHLAHWKTWLCQLQQSTEEAKNRLMERIDEAWLEILDMLELGLKGGEMVEYQLITDEATIQQQWVKEMNKSLFYVPSQSLQKQEGNGRNGEHTDDLQQALSTCSEVYNSDRHAVW, MGSDKIHHHHHHMNFCRILLKPLKKNEALSGYSAEGLHYLTDNKHFNPELPFSRQEFITVKPQKQQGMSISGFQPKLQLIIKDEHFDSVNQQGNYILKPSPEEYPFLAENEHATMRIMKELGFDVPENGLVSFAGEQNHKEFAFVITRFDRDKQQKPMHQEQLDGAMNIRDKYGKIGADNEQYVSYEQIAKFILQHTENHLAQQREIFRRIIYAYLLGNNDLHLRNFSFIYPKNSHPKLAPIYDFVSVSPYPEIFNSTLLALPLLAREEGNATLAKGFNTQYGEYIGDDFVEFGENIGLNKNVIIQKLIPEIIQEKEKVEQIYSQSFMPQPHIDCVLKTYRKRLALLNLLNEPEL, MGSDKIHHHHHHMNFISRVTKKNTYMKKAVIYSRVSTDEQAQLGYSLRDQERCLRLFCEKNDLEVVHHYQDDHSAKDFNRPQFQQFLRDVKSKRIKVDYFVCLKQDRFSRDTRLALNSVHDLEKLGVTVKYVENNLDLSIAENIIPYLLNFGIAELENKRLSERTKKGMRQAKREGRWVGTPPRGYKSIPDSTGKKILTPNQYSTLIIEAFTEFAQGNHSTESLRKVLYARGLKVSENQFPNILKNPIYCGKIRIDEWKEEKEEIVIGIHEPLISVELFEKVQRILNGTSTPNKPHKKLDPELPLRPFLKCSCGSNLTGSRSRSRNGNYHYYYHCQNGCSVRFPAKVANKKFETFLSMFSFSEDVILLYKEVLKDEFSKQVKERLELSAADAALKLKTQNLLDNADEKYIANELDNTTYQRVKEKYQKILDTITNKELDSKVVKSEFEKYLKGVTLLDSLDVKYKEGTIEFKNALLGSIFMGKLEFSENEYRTTQINSVVENLLLNFNELASYKKEKATTNSGFLQQAPPLGLEPRTP, MGSDKIHHHHHHMNFKRLIIYEAFARAYPGEKGKKFDSLIKDLERLKGMGINTVWLMPIHPTGIEGRKGTLGSPYAIRDYYEIDPLIGTKDDFKRFVKRAHELNMYVLMDMVLNHAAADNVLVREHPEWFLRDEKGNPTRKVPDWTDIVDFDYSNGELRKYMINMMKYWVEEFDVDGFRCDVAGLVPLDFWLQARKELDPVKRLIWLSETHDPYMYQAFDITYDYDGYYKFRDFIEGRGSLREYVDFLRMQDHMYPRGYIKMRFLENHDQPRIAKFIEEDSLVHWIAFLFTFKGVPLVHNGQEYGLKEDVDIFNEYTLPFPMEENRISILHRKLAHYRYGTSVFSEGEMLFVKNDQPEKVISYLWRYENRYILCMLNPLLENTKVTLDFSGIWESACIHSKNVFNDEIVRVPVKNSRATVEIGKEPLILSFVLY, MGSDKIHHHHHHMNFVTTIGLEVHVELKTNSKIFSPSPVQFGSEPNANTNVIDWGYPGVLPTPNKGVVEAGIKAATALHAEIEHHTYFDRKNYFYPDNPKAYQITQHEKPIAHDGWIEIEVDGKKKKIGIEEMHIEEDAGKNTHENDYSYVDLNRQGTPLIEIVSKPDIASPEEAYAYCEALRQRIQFTGVSDVKMEEGSMRVDVNISIRPAGSDKYGVKTEMKNLNSFNYVRKSLEYEEQRQQQVLMAGGKIQQETRRFDETTGQTILMRVKEGSDDYRYFPEPDIPAVDIDDDWIASVKKTIPEMPGSRRERYINEFGLTAYDAGVLTQTKEMSDFFDATVAEGADPKLASNYLQGDVNAYLNEHKVDLLATDLTPTNLAGMIKMISDETISSKIAKKVFKAIMAGSEPVQWVNDKGLVQLSDPAKLQPIVDDVLDNNQQSIDDFKNGKDRAVGFLVGQIMKKTRGQANPKVVNQLLMTSLKAR, MGSDKIHHHHHHMNIIICDDRIDDRKNLSDLLSDYGEKKNYEFTITEYDSGEQLCEEQSALEACQLLFLDINMQGMDGLKTAMRIKEKYPKLPVVLVTAYMNYALDGYKVKASRFLLKDNLADTIEECMDDLIAEINKNRRILEFRFVEGTIKLYADDIIYIETELHKNVFYTEKGTFQIYKKLDELENEFKDMGFVRAHLSFLVNMRYITKISGYVMTLTTGKKIPVPKARYAQVKREYMLYKGEE, MGSDKIHHHHHHMNILIKIRELTNLTNSEKELANYIVVNPKKTLQFKPKELAQAAFVSAATIYRLINKLGLNGIGELKIEIASSLRETNEEKEINYDYPILESDTPYQIMTNLNQIYKGTIDETLNNADPEELVKIGEKLIKAKTIDVYAASANLFFAQNFKFQMQEIGVLVNVPEEDYIQSLSAANSDKDHIAIVVSYGGRSRTLQRVVKILSENDVDIILITSMQANPLVEFATHKIYMASAENHYNKVSSFSTRQSLLSIFDTLYSVYFNHDYEKNIQYKTTNYQKMNSELE, MGSDKIHHHHHHMNIPIKTLQCFLTLVETENFTRAAQKCFITQPTLSKIIQRLEESLGETLLIRNNQKVELTQAGQLFEHSAREILGQWHRLQEDMSNLSGLKSGRLRLGVCPMMSSLIIGLLTSYRKRYPGVELQMYEYGGFGCEQALLNNSLDIAFTALPTTHETELINQPLTKYPLLACLPEAHPLAAKSYLSWQDFEPYPFILYNEDFSLAKLINRLSRKAGVQLNIAFRSGQWDFLATMVEADMGLAILPEPICQKLSNSKLVFRPMQPALTWDLALIWRQNLPLTPAANALLELSKQKA, MGSDKIHHHHHHMNITIATLGELLVEFLAKKENQGFSSPGEFWGPYPSGAPAIFADQVAKLGFRSLLFSCVGNDAFGVMNITRLSRDGVNVQGISVLPNATTGSAFVSYRSQAQRDFIFNMPDSACGLLSADHLDETLLRQYRHFHIMGSSLFSFRLIDAVRKAISIVKENGGTISFDPNIRKEMLKIREMSQAFEYILDYTDFFLPSDGELDYFGLSKSRDEEKIVARLHKRGIAHVIIKRGARGASYYSKDEQHHVAGYPVKVVDPTGAGDCFGATFVSLFLAGYSVPDALAHANAAGSLAISARGPMEGTSTLAQIKELMRQQN, MGSDKIHHHHHHMNIVTLISWDFKRNNESFQRAIINGYDYWSRILDDHGVEKYVILLTCNRVELYYRGDPFDVQEKGYNIISDDMAINHLFHVAAGLDSMSIGENEVLKQVKQAYEKSSSMGKSDKFLSLIFQRAISVGKLVRSKTGIGKGKVSIPSIVYDIVRKNGGNKILLVGNGMLASEIAPYFSYPQYKVTVAGRNIDHVRAFAEKYEYEYVLINDIDSLIKNNDVIITATSSKTPIVEERSLMPGKLFIDLGNPPNIERGNNVITLDEIYEISKKNEMLREEKINQAEILIENEMKATMNKIKDLMIDDIFSQFYRFASVVQTMEIQKFRKMHPEVNENDLEALAHSIINKILNVPVTTLKAVSRSQGNSDFNRLFESFSSNFNDIVSAALQSYEGLRDTQSLRDRTRQLLQKS, MGSDKIHHHHHHMNKGVPLKTRAEVNAFNGSKMLKVIGLDEFVSNGICDNRHCLLLPNYNPNQRELLSLDWGAVAIQCGGIPSNLTIPVISKLEHPEVISTGDVIVLNENRVDILYRRKSTANLLFVTERCNHQCIMCSQPPKVLDDGWHFEECHQLLELIDRDIPVLGISGGEPTLQRDGFLKLLEHAKKALPSTQLHILTNGSAFEEYLYVEQIIQLGHQQIVWGIPIYGSTPQQHDYHTQVLGSFNKTMHGLYNLGHVGAQIELRVVLTRPIIENIVELSEFIARNLPFVSTVALMGLEPTGFARTNYEAVWCDLNDYQEELLEGTHVLLSSGLDTVLYNIPRCHVPKSLRSIAVQSISDWKNSTRKECEYCEEQNLCCGFFKSHTQRFSEQNVKPIQLERRSENVVRT, MGSDKIHHHHHHMNKTCERTSGDCTGESKARAASDRVTPCFTPGTLIATPRGERLVENLQVGDRVITRDNGIQEIRWFGHNAMGPQDLSHASHLQPILIRQGALGNGLPERDMMVSPNHRVLVANDKTALYFEDREVLVAAKHLTGLTGIDAIVTTAVTYIHFMFNQHEVVLSDGAWTESFQPVDQSLRGLDNAQRNEIFELFPELRTKEGQKAYPSARRELKEREARMLLH
